Patent US20240067720A1 (SHANGHAI JUNSHI BIOSCIENCES, published 2024)

Molecular target: T1, hTIGIT expressed on Jurkat reporter cells (hTIGIT/NFAT-luciferase) (human, UniProt Q495A1 22-244)
T1 sequence (looked up): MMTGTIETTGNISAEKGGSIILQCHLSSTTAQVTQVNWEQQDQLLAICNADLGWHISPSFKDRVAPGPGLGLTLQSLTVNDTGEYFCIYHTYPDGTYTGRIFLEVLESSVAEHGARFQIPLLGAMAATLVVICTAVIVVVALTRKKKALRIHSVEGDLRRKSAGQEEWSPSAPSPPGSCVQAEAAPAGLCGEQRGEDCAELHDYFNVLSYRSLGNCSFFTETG
Test: cell-based or functional assay

B1: humanized anti-TIGIT monoclonal antibody hu20 (antibody, human IgG4 S228P, kappa, V domains shown)
VH: QVQLVQSGAEVKKPGASVKVSCKTSGYAFTEYTMHWVRQAPGKGLEWMGGINPNTGGTTYNQKFQGRVTLTVDKSSSTAYMELSSLRSEDTVVYYCAKLLRLMYYFDYWGQGTLVTVSS
VL: DIQMTQSPSSLSASVGDRVTITCQASQDVRTAVAWYQQKPGKAPKLLIYSASYRYTGVPSRFSGSGSGTDFTFTISSLQPEDIATYYCHQHYITPWTFGGGTKVEIKR
- EC50 of T cell activation; luminescence of Jurkat hTIGIT/NFAT-luciferase reporter cells co-cultured with CHO cells expressing hPVRL2: 42.4 ng/mL
